Source: the supplement of paper PMC12764529
± gives the half width of the 95% confidence interval.

Assays:
[1] = folding stability dG unfold from trypsin proteolysis; higher = more stable
How it was run: (§1)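 Bayesian fitting of sequencing counts gave K50 for each design. Unfolding free energy followed by setting this against a sequence-predicted unfolded-state K50 and a shared folded-state K50, either per protease or with trypsin and chymotrypsin combined. The designs, under 80 residues and lacking cysteine, were digested in a PA-tagged cDNA display format at 11 threefold-diluted protease concentrations and without protease, and only those with AlphaFold2 dimer inter-PAE above 15 were kept.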

[2] = folding stability dG unfold from chymotrypsin proteolysis; higher = more stable
How it was run: as §1

[3] = folding stability dG unfold (combined trypsin and chymotrypsin); higher = more stable
How it was run: as §1

Row | Sequence | folding stability dG unfold [1] [kcal/mol] | folding stability dG unfold [2] [kcal/mol] | folding stability dG unfold [3] [kcal/mol]
1 | SAGGSMTITYDPETNTVTILDPNIPPNEPRPVTLTLPDGEKYTLTLRPVPGNGWTGTLTWKSTKDGSAGGSA [r2_89_TrMRF] | 0.911 ± 0.05 | 1.54 ± 0.19 | 1.27 ± 0.21
2 | SAGGSAGGSAGGETITIKNKKTNETVTIEKDKDGNYTITYPDGSKKTYKKGEKISKSALSAGGSAGGSAGGS [r10_98_TrROS_Hall] | 0.162 ± 0.13 | 1.18 ± 0.14 | 0.9 ± 0.18
3 | SMILDVPGEQLDEALAEIRAAVAAGAPPVTIRMKLSPEDLKKAKAAFEALGMTVTPLPEPGVWEFTVELRSA [r9_600_JUSTAS] | 3.08 ± 0.043 | 3.366 ± 0.017 | 3.27 ± 0.065
4 | SAGGSAGGLKEALKLAEELGAKPHVVKTKGNSEIVFLELKDGRKIRLLVENGKIKEIIPIPETPSAGGSAGG [r6_548_TrMRF] | 1.86 ± 0.065 | 2.39 ± 0.065 | 2.08 ± 0.17
5 | SAGGSAGGNEIAEKLKKKYPNIKIKSVKINPKEGKIEIDLGFPKDAKPETIKKIEKEIEELAKKSAGGSAGG [r6_97_TrMRF] | 0.578 ± 0.056 | 0.442 ± 0.14 | 0.646 ± 0.34
6 | SAGSKVPVTATATFSDKAELEKTVADIKAKTGYDIEVTYDPNSNSYTITVNTTDEVVKMLKEKGFKLESAGG [r19_306_JUSTAS] | 2.33 ± 0.13 | 1.94 ± 0.13 | 2.14 ± 0.28
7 | SAGGSAGGSSAVVPLPDVVLVVLTFPDGGPPVLALLFPPTGRVVFVHPDSVTVAPFAPGGSLLSAGGSAGGS [r12_536_TrMRF] | 1.1 ± 0.036 | 1.74 ± 0.062 | 1.51 ± 0.07
8 | SAGGSAGGSGFPVRLKIWDPDETYTYTVPMDPDNVQKFAEELGEKNFNIETEPNGWATITIPKSAGGSAGGS [r12_292_TrROS] | 0.471 ± 0.08 | 0.95 ± 0.15 | 0.713 ± 0.22
9 | SAGGSAGGMARVLRVEPAEGDDTFYVEVEFYDPATGEVTLGRFRIPADRPDLATNIPADSWVVLSAGGSAGG [r6_978_TrMRF] | 0.66 ± 0.04 | 1.56 ± 0.059 | 1.25 ± 0.046
10 | SAGKKSTLTIDLPGSTVTLTYDPATGKVRITVNLGVAVAGIDPETGKPGIVTGSVTLEADIDVPPGAPISAG [r5_195_TrMRF] | 2.61 ± 0.16 | 2.68 ± 0.057 | 2.65 ± 0.15
11 | SAGGKKIVIFIGPPEQMDRMQEQHPDEPVIPIPRDALQDPEPAKNLIKELQEKGKDVEIYLFKDFKPSAGGS [r8_376_TrROS] | -0.176 ± 0.31 | -0.287 ± 0.4 | -0.239 ± 0.17
12 | SAGGSAGGSAGGAPEVKRVLVLVEVEVKPGDTIELPEGARVIWDPKTRRLYVLVEVELRPSAGGSAGGSAGG [r7_584_TrROS_Hall] | 2.73 ± 0.12 | 3.77 ± 0.057 | 3.38 ± 0.13
13 | SAGGSAGGSDTPTINIPPGMGNPEQAIEQLKEIREHFPPGKKISISAPGGWKPELKEAGLITVSAGGSAGGS [r12_992_TrROS] | -0.37 ± 0.11 | 1.23 ± 0.08 | 0.513 ± 0.11
14 | SAGGSAGGSAGGSKIEIEEENGELKITIEVDGKKYEITIPKDMTLEEALKKALEKLPGLSAGGSAGGSAGGS [r4_191_TrROS_Hall] | 3.45 ± 0.69 | 2.5 ± 0.087 | 3.09 ± 0.18
15 | SAGGSPIIRVKVTYYPPDGSVTVYLPADSVDELIDALNSVPDIPVTPTDGDTIIASTPDAIVEITVESSAGG [r13_143_TrMRF] | 0.471 ± 0.031 | 0.849 ± 0.032 | 0.717 ± 0.097
16 | SAGNIRIDVHVPPDGYYMIKIRFPGNGREANIMLPPNDPDKFKELAEEIAENLFEEGFPIEVDIEPIPPSAG [r5_815_TrROS] | 1.56 ± 0.07 | 2.34 ± 0.095 | 1.89 ± 0.31
17 | SAGGSAMTVTTLPDGSTVIHLPSGTTITITTAPDGTKPITITPPDGVPTTFPASVSLEDAIKAALSSAGGSA [r15_371_JUSTAS] | 3.58 ± 0.044 | 2.67 ± 0.034 | 3.1 ± 0.032
18 | SAGGKMKLEVEILENEGTILVRFHFGDKVLEIPLPFPNLTPEDVKEAAEEIAKKLKEEYNIEEVEIESAGGS [r16_249_TrMRF] | 2.33 ± 0.13 | 3.18 ± 0.23 | 2.64 ± 0.28
19 | SMIVRVEGDKTTITLTLTTTTTLTDPTNPSLTTTVSKTVPRTLTLDPNDPAALAALIAALPPGAVPTIVGSA [r9_476_JUSTAS] | 0.728 ± 0.04 | 1.75 ± 0.091 | 1.43 ± 0.095
20 | SAGGSAGGMTLKIKVAPGAVIRIYNKDGELIEEIEVEEGEEVEIEIELPEEDLENLRIEILPAPSAGGSAGG [r6_471_TrROS_Hall] | 3.96 ± 0.27 | 4.6 ± 0.079 | 4.42 ± 0.25
21 | SAGGEKIEELLKELLEKLEIKPGEKVEIEIEFELEDGYRIKLKITVTYNEETGEVEIKVEIVEIEKVSAGGS [r16_634_TrROS_Hall] | 2.96 ± 0.12 | 4.39 ± 0.17 | 4.22 ± 0.19

Row | Sequence | folding stability dG unfold [1] [kcal/mol] | folding stability dG unfold [2] [kcal/mol] | folding stability dG unfold [3] [kcal/mol]
22 | SAGGKKKLVEITIKVPPGMTVEELIAEIAKKLPPGAKIVKVEYDKETKEIKIIVYDEKTKKKIEIKFSAGGS [r16_250_TrROS_Hall] | 1.81 ± 0.049 | 1.51 ± 0.036 | 1.64 ± 0.14
23 | SAGGSAGGSAGGSMPVKLDEIIDYDPKKKVLTVLLTHPDGSKSLVVVPGKSIEEIKEANSAGGSAGGSAGGS [r4_357_TrMRF] | 0.314 ± 0.029 | 0.709 ± 0.029 | 0.648 ± 0.098
24 | SPIVKVRLRIELPDGKVLELELDVPLPLIKEALSKLIGEKYKVKIVKIDPIDPEKLKPGSTIEITLKAEPSA [r9_803_TrMRF] | 3.72 ± 0.28 | 4.76 ± 0.14 | 4.59 ± 0.2
25 | SAGGKKKKVKKKKPVYRIKIKLKNGEEIEIEAKSKEEAEKAAKELLKKLFPEKKIDEIKIVEIEKLPPSAGG [r13_887_TrROS_Hall] | 2.54 ± 0.061 | 2.69 ± 0.12 | 2.69 ± 0.16
26 | SAGGSMIEEAIEEALKKGLEKVEIEVEVEVNGKIYRVKMEIVKVEEGKVEIKIEVEEIDPETGKLISAGGSA [r2_420_TrROS_Hall] | 2.54 ± 0.13 | 3.92 ± 0.15 | 3.53 ± 0.19
27 | SKKVTLPIRFPWNGWEIEITAEELAEKKGLDPEDLTIHVVMPGPGWMYTIKIDPDGIEIEPIGPVPPNDMSA [r9_819_TrROS] | 1.45 ± 0.029 | 2.951 ± 0.026 | 2.54 ± 0.074
28 | SAGGSAGGSITVEVEVEIVDEVEDPNTQGYRPVRVSRIPITIPVPESWSEEDIEAAVKEAIEKASAGGSAGG [r6_494_JUSTAS] | 1.1 ± 0.047 | 2.13 ± 0.022 | 1.7 ± 0.15
29 | SAGGSAGGKIKVEYNPENNMYRVTIKLPGGKIKIYIPPGQTEEQGEKNVKHMAKELLKKNGIKISAGGSAGG [r6_679_TrROS] | -0.0228 ± 0.46 | 1.47 ± 0.14 | 1.17 ± 0.44
30 | SAGMETVKIKVRVKVTVRERLPDGTVKTREFELTLEIEVEVEPGQTAEELAKKLAEEFNIEEVEIEKVPSAG [r5_994_TrROS_Hall] | 2.57 ± 0.19 | 3.83 ± 0.58 | 3.29 ± 0.38
31 | SSVTIPFKITDPNTTIAEIAERVRELLPESLGELSVTVTFSDGTTLNVTPGENLSKYYSPDDELTITVDAPS [r1_56_JUSTAS] | 1.29 ± 0.034 | 1.23 ± 0.11 | 1.27 ± 0.11
32 | SAGGKPVRILVIAGKGIRPLEIPVDEDKTVEAEFKFGDHTIRIRVSPKEKKIEVEAPSNFKIIILEPSAGGS [r16_761_TrMRF] | 2.96 ± 0.092 | 3.14 ± 0.042 | 2.98 ± 0.12
33 | SAGGSAGGSADLLEELPGLEVVDIERKGNSVVALFRNKETGELVRVTVDADGNITVEVLPLESAGGSAGGSA [r18_26_TrROS_Hall] | 3.7 ± 0.1 | 4.02 ± 0.072 | 3.99 ± 0.11
34 | SAGGLKELLEALKEGNLEEALEALKKLGIEEVKIEIKPVVRVVITVEVPKEKVKVKVEVRVFLPEEELSAGG [r13_359_TrROS_Hall] | 1.94 ± 0.13 | 1.24 ± 0.23 | 1.71 ± 0.33
35 | SGVSVKVTVEGNTITIEVSADAKIKIEVTFPTKKATYEVEVEPGKPVTFTIPLPKDVPKDAFIDKIDIGGSA [r9_1152_TrMRF] | 1.98 ± 0.11 | 3.56 ± 0.12 | 3.03 ± 0.17
36 | SAGGMVKIVRVTFEDGRELVLTEPEKIEEFLKKALGPNFVIKEVREGYVPHPDGPPIPTFELVVERPSAGGS [r16_408_TrMRF] | 2.11 ± 0.053 | 2.65 ± 0.021 | 2.44 ± 0.042
37 | SNLMIHFENPDNGVRVMIQINPEHGRIKLSVMYPNGKPVAEQTIEVDPNKIRLRFKVGGRKFEIEIEIPESA [r9_385_TrROS] | 4.32 ± 0.19 | 5.6 ± 0.29 | 5.62 ± 0.54
38 | SAGGSAGGSAGSSMTTVTVTITDTGSGKTTTTELDVPVSEVQAVIDELSPSPTLTITVVQSAGGSAGGSAGG [r17_50_JUSTAS] | 1.84 ± 0.049 | 1.51 ± 0.028 | 1.64 ± 0.043
39 | SAGGSAGGSAGGKELEIVLYDKETNVLVTAKVRMENGKLTITEVKVEKVKPPKLPPGVKPSAGGSAGGSAGG [r7_276_TrROS_Hall] | 1.48 ± 0.06 | 2.44 ± 0.071 | 2.14 ± 0.079
40 | SAGGMRIELVRTYIEEPDENGKLKGSGYREVLVLRPPPPVIRVPPELLEEAEELRKKLDGPVEPEELGSAGG [r19_315_JUSTAS] | 3.63 ± 0.38 | 3.6 ± 0.18 | 3.84 ± 0.42
41 | SAGGSMSAEELREKIAADPRISLDDVTVTVTRTPDSVTVTVTLKDPNDPVYVEAEERARALFAELASAGGSA [r2_3_JUSTAS] | 0.704 ± 0.024 | -1 ± 0.24 | 0.16 ± 0.049
42 | SAGGMKITKEGNELTLTYPNLTVTYDPNTGKMTITNPATGKTVTIPVPATSLEEKLAAVEEVKAALPSAGGS [r8_447_JUSTAS] | 1.06 ± 0.025 | 0.707 ± 0.042 | 0.918 ± 0.041
